From publication PMC10916992, “APOE Christchurch‐mimetic therapeutic antibody reduces APOE‐mediated toxicity and tau phosphorylation” (Alzheimer's & Dementia, 2023)
Where a chain is given by its changes, count along the chain named. Values belong to the binder of their own block, whether it stands above or below them.

Legend:
[1] = biological target: T1, Recombinant His-tagged full-length human ApoE4 (Homo sapiens, ApoE4 (C112R mature), UniProt P02649, Cys112 → Arg112); test: SPR; Biacore 3000, PBS; the Fab injected at various concentrations (methods; the legend says ApoE4 over immobilised Fab); contact 120 s, dissociation 240 s, 30 μL/min; KD from ka and kd; conditions: both partners purified
T1 construct: Apolipoprotein E, human, isoform E4; their rows are written on this molecule; source: E. coli-derived, His-tagged, fee-for-service by Innovagen
Target sequence in this assay (P02649 other isoform, or with tags, fused parts or gaps Cys112 → Arg112 | Cys112 → Arg112): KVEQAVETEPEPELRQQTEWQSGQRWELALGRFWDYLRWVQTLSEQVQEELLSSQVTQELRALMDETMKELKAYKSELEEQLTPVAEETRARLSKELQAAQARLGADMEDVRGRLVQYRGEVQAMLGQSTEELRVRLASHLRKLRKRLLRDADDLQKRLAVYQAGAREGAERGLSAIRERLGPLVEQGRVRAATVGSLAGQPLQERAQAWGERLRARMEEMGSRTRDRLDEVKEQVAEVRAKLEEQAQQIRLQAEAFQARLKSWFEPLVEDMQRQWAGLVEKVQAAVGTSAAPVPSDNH

[2] = biological target: Recombinant His-tagged full-length human ApoE4 (human, UniProt P02649 19-317, Cys112 → Arg112); test: SPR
Chain of Recombinant His-tagged full-length human ApoE4 (human, UniProt P02649 19-317, Cys112 → Arg112) (P02649 other isoform, or with tags, fused parts or gaps Cys112 → Arg112): as the sequence (P02649 other isoform, or with tags, fused parts or gaps Cys112 → Arg112 | Cys112 → Arg112) above

[3] = biological target: T1, Recombinant His-tagged full-length …; test: BLI; OCTET RED 96, 25°C; 7C11ch.IgG1 loaded on anti-human IgG Fc (AHC) sensors at 20 μg/mL; ApoE4 in solution (200 nM), PBS + 0.1% BSA; conditions: both partners purified
[4] = biological target: T2, Recombinant His-tagged full-length human ApoE3 (Homo sapiens, ApoE3, UniProt P02649); test: ELISA; ApoE peptide or full-length protein coated on the plate; serial dilutions of hybridoma cell supernatants; TBS with 2 mM CaCl2, 3% BSA block; conditions: one partner purified
T2 construct: Apolipoprotein E, human, isoform E3 (C112, R158); ELISA used the Innovagen protein; their rows are written on this molecule; A recombinant 'full-length' ApoE from E. coli is probably the mature protein without signal peptide (surmise); also called ApoE3 FL; WT ApoE; source: E. coli-derived, His-tagged, fee-for-service by Innovagen
Target sequence in this assay (P02649 19-317): as the sequence (P02649 other isoform, or with tags, fused parts or gaps Cys112 → Arg112 | Cys112 → Arg112) above, with R112C counted along it

[5] = biological target: T3, Recombinant His-tagged full-length human ApoE2 (Homo sapiens, ApoE2 (R158C mature), UniProt P02649, Arg158 → Cys158); test: BLI; OCTET RED 96, 25°C; msIgG1 7C11.mAb loaded on anti-mouse Fc (AMC) sensors at 20 μg/mL; ApoE variant in solution (200 nM), PBS + 0.1% BSA; conditions: both partners purified
T3 construct: Apolipoprotein E, human, isoform E2; its rows are written on this molecule; source: E. coli-derived, His-tagged, fee-for-service by Innovagen

[6] = biological target: T1, Recombinant His-tagged full-length …; test: as above; conditions: both partners purified
[7] = biological target: T2, Recombinant His-tagged full-length …; test: as above; conditions: both partners purified
[8] = biological target: T3, Recombinant His-tagged full-length …; test: BLI; OCTET RED 96, 25°C; ApoE variants immobilised on anti-penta-His (HS1K) sensors; 7C11.mAb in solution, titrated; conditions: both partners purified
Target sequence in this assay (P02649 other isoform, or with tags, fused parts or gaps Arg158 → Cys158 | Arg158 → Cys158): as the sequence (P02649 other isoform, or with tags, fused parts or gaps Cys112 → Arg112 | Cys112 → Arg112) above, with R112C, R158C counted along it

[9] = biological target: T1, Recombinant His-tagged full-length …; test: as above; conditions: both partners purified
Target sequence in this assay (P02649 other isoform, or with tags, fused parts or gaps Cys112 → Arg112 | Cys112 → Arg112): as the sequence (P02649 other isoform, or with tags, fused parts or gaps Cys112 → Arg112 | Cys112 → Arg112) above

[10] = biological target: T2, Recombinant His-tagged full-length …; test: as above; conditions: both partners purified
Target sequence in this assay (P02649 19-317): as the sequence (P02649 other isoform, or with tags, fused parts or gaps Cys112 → Arg112 | Cys112 → Arg112) above, with R112C counted along it

[11] = biological target: T4, ApoE3 in post mortem human brain tissue (APOEε3/ε3 PSEN1 E280A carrier) (Homo sapiens, ApoE3, UniProt P02649); test: immunostaining of cells or tissue; formalin-fixed paraffin-embedded middle temporal gyrus sections of PSEN1 E280A carriers of different APOE genotypes; 1H4 0.012 μg/μL, 7C11 0.041 μg/μL, 19G 0.072 μg/μL overnight 4°C; HRP detection; not quantified; conditions: one partner purified
T4 construct: Apolipoprotein E, human, isoform E3; source: endogenous, post mortem human middle temporal gyrus, formalin-fixed paraffin-embedded sections
T4 sequence (P02649 19-317, stated change not applied): as the sequence (P02649 other isoform, or with tags, fused parts or gaps Cys112 → Arg112 | Cys112 → Arg112) above, with R112C counted along it

[12] = biological target: T2, Recombinant His-tagged full-length …; test: ELISA; ApoE variants or peptides coated (0.0025 μg/μL in TBS with 2 mM CaCl2, 16 h 4°C); serial dilutions of purified monoclonal antibodies (0.01 to 6.7 nM in the isoform panel), 2 h RT or 16 h 4°C; HRP secondary; conditions: both partners purified
Target sequence in this assay (P02649 19-317): as the sequence (P02649 other isoform, or with tags, fused parts or gaps Cys112 → Arg112 | Cys112 → Arg112) above, with R112C counted along it

B3: 25F.mAb (mouse monoclonal anti-ApoE3Ch antibody, clone 25F1-2) (antibody, V domains shown)
VH: EVQLQQSGAELVRPGALVKWSCKASGFNIKDYHIHWVKQRPEQGLDWIGWIDPEIDKTLYDPKFQGKARITADTSSNTAYLQLSSLTSEDTAVYYCARGTARASFDYWGQGTTLTVSS
VL: DIVLTQSPASLAVSLGQRATISCKASQSVDYDGDTYMNWYQQKPGQPPKLLIYTASNLESGIPARFSGSGSGTDFTLNIHPVEEVDAATYYCQQSNEDPWTFGGGTKLEIK
notes: VH CDR-1; VH CDR-2; VH CDR-3; VL CDR-1; VL CDR-2; VL CDR-3; Raised against the ApoECh peptide; also called 25F.Ab; source: hybridoma supernatant (25F.Ab) and purified monoclonal antibody (25F.mAb), fee-for-service by Innovagen
binding result [4]: binds

B4: 7C11.mAb (mouse monoclonal anti-ApoE antibody, msIgG1) (antibody, V domains shown)
VH: EVKLVESGGGLVQPGGSLKLSCAASGFTFSRYTMSWVRQTPEKRLEWVAKIRNVGGITYYPDTVKGRFTISRDNAKNTLYLQMSSLKSEDTAMYYCARHYYGSEDYFDYWGQGTTLTVSS
VL: B3 VL with I2N, T35S, L50V, L51F, T54A, D74N, V85E
notes: VH CDR-1; VH CDR-2; VH CDR-3; VL CDR-1; VL CDR-2; VL CDR-3; Mouse IgG1; also called 7C11.Ab; ms.7C11-Ab; source: hybridoma supernatant (7C11.Ab) and purified monoclonal antibody (7C11.mAb), fee-for-service by Innovagen
Kd [5]: 28.1 nM
Kd [6]: < 0.001 nM
Kd [7]: 5.14 nM
Kd [8]: 7.41 nM
Kd [9]: 6.07 nM
Kd [10]: 16.8 nM

Now from value to binder:

Kd [1]: ~10 nM
Kd [2]: 25.1 nM
B1: 7C11-Fab (recombinant Fab fragment of the 7C11.chIgG1 antibody) (Fab, V domains shown)
VH: B4 VH
VL: B3 VL with I2N, T35S, L50V, L51F, T54A, D74N, V85E
notes: VH CDR-1 of 7C11; VH CDR-2 of 7C11; VH CDR-3 of 7C11; VL CDR-1 of 7C11; VL CDR-2 of 7C11; VL CDR-3 of 7C11; also called Fab-7C11; 7C11.IgGFab; source: recombinant, purified, fee-for-service by Creative BioStructure

Kd [3]: < 0.001 nM
B2: 7C11.chIgG1 (chimeric mouse-human IgG1 7C11 antibody) (antibody, V domains shown)
VH: B4 VH
VL: B3 VL with I2N, T35S, L50V, L51F, T54A, D74N, V85E
notes: VH CDR-1 of 7C11; VH CDR-2 of 7C11; VH CDR-3 of 7C11; VL CDR-1 of 7C11; VL CDR-2 of 7C11; VL CDR-3 of 7C11; Human IgG1 constant regions; also called chimeric 7C11 antibody; 7C11 human chimeric antibody; source: human chimeric antibody produced as fee-for-service by Innovagen

binding result [11]: binds
binding result [12]: binds
B5: 1H4.mAb (mouse monoclonal anti-ApoE antibody) (antibody, V domains shown)
VH: B4 VH with L11V, R31S, V54G, P61L, V64L, M93I, Y95F
VL: B3 VL with I2N, T35S, L50V, L51F, T54A, V85E
notes: VH CDR-1; VH CDR-2; VH CDR-3; VL CDR-1; VL CDR-2; VL CDR-3; Raised against the ApoE peptide; also called 1H4.Ab; source: hybridoma supernatant (1H4.Ab) and purified monoclonal antibody (1H4.mAb), fee-for-service by Innovagen
